Source: US20260250410A1, “ANTIBODY AND USE THEREOF” (SICHUAN HUIYU PHARMACEUTICAL CO., LTD., priority 2022, published 2026)

T1: HuCDCP1-C (Homo sapiens, UniProt Q9H5V8)
T1 construct: made in house; host or cells: HEK-293T
T1 sequence (Q9H5V8 30-667): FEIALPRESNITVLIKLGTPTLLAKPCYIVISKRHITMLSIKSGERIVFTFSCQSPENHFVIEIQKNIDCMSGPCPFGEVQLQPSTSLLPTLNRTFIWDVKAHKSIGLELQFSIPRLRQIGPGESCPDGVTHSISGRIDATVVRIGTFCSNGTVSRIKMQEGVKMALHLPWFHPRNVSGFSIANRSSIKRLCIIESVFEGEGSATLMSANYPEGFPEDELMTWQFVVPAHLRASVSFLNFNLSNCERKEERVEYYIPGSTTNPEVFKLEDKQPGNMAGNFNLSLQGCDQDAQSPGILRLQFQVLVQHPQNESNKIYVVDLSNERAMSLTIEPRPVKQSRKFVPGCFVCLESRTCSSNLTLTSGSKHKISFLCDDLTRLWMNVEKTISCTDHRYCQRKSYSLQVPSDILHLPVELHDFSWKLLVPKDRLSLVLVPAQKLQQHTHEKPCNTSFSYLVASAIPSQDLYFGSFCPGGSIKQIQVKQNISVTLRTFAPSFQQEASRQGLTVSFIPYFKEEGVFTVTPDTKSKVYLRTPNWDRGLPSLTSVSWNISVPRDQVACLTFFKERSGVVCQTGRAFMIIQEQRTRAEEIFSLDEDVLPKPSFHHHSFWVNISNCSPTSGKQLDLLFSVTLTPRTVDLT


Tests used:
HuCDCP1-C = target: T1, HuCDCP1-C; test: Caterra affinity of humanized anti-CDCP1 antibodies; format: binding; details: HuCDCP1-C 2 μg/ml immobilized
Method: The humanized anti-CDCP1 antibodies obtained from Example 11 were subjected to gene cloning, constructed into pTT5 expression vector for a small amount of expression in CHO cells (Expi-CHOS: Gibco A29127), and purified with an Fc affinity column (AT Protein A Diamond Plus. No. AA402312). Antibody purity was analyzed by HPLC and determined by Nanodrop. High-throughput affinity assay was carried out for a small amount of antibodies by Caterra.

MDA-MB-231 cells = test: Endocytosis capacity of humanized antibodies; format: cell-based, human; details: antibody 1.5 μg/mL; for 1 h endocytosis (%): MDA-MB-231, 1 h at 37° C.; for 2 h endocytosis (%): MDA-MB-231, 2 h at 37° C.
Method: The endocytosis capacity of the anti-CDCP1 humanized antibody was detected with reference to example 5. MDA-MB-231 cells were subjected to digestion with 5 mM EDTA, and plated at 3×10^4 cells/well after cell counting. After adding an Fc blocker and blocking at room temperature for 10 mins, a test antibody (1.5 μg/mL) was added, and the mixture was incubated at 4° C. for 30 mins, centrifuged, and washed twice with PBS+2% FBS, then the cells were divided into three equal portions (labeled as 0 h, 1 h, 2 h), cells labeled as 1 h and 2 h time points were added to 200 μL of cell culture medium, and cultured at 37° C. for 1 h and 2 h, respectively. Cells at 0 h point were centrifuged, a secondary antibody (PE anti-human IgG Fc Antibody, Biolegend, 410708) was added, and the mixture was incubated at 4° C. for 30 mins, centrifuged, and washed twice with PBS+2% FBS, and detection was performed using a flow cytometer. After incubation of cells labeled as 1 h and 2 h points at 37° C. was completed, a secondary antibody was added (in the same steps as those at 0 h point), Geo-MFI of the signal under the same voltage was collected as detection signal at 0 h, and antibody internalization rate was calculated according to the following equation: Internalization (%)=(Geo-MFI (0 h)-Geo-MFI (1, 2 h))/Geo-MFI (0 h)×100%.

Molecule	ka (HuCDCP1-C) [M⁻¹ s⁻¹]	kd (HuCDCP1-C) [s⁻¹]	1 h endocytosis (%) (MDA-MB-231 cells)	2 h endocytosis (%) (MDA-MB-231 cells)
1CP-124: humanized anti-CDCP1 antibody produced by 3C11; VH SEQ ID NO: 339, VL SEQ ID NO: 351 (antibody, V domains shown, humanized antibody 3C11 heavy chain variable region 01; humanized antibody 3C11 light chain variable region 01) VH: QVQLVQSGAEVKKPGASVKVSCKASGYNFISYWLHWVRQAPGQGLEWMGGIYPGNTDTTYNQKFKGRVTMTRDTSTSTVYMELSSLRSEDTAVYYCIRYDYDRGMDYWGQGTLVTVSS VL: DIQMTQSPSSLSASVGDRVTITCRASEDIYYRLAWYQQKPGKAPKLLISGATALETGVPSRFSGSGSGKDYTFTISSLQPEDIATYYCQHYWNIPWTFGQGTKVEIK	148000	1.47e-05	38.17	56.39
1CP-125: humanized anti-CDCP1 antibody produced by 3C11; VH SEQ ID NO: 340, VL SEQ ID NO: 351 (antibody, V domains shown, humanized antibody 3C11 heavy chain variable region 02; humanized antibody 3C11 light chain variable region 01) VH: QVQLVQSGAEVKKPGASVKVSCKASGYNFISYWLHWVRQAPGQGLEWMGGIYPGNTDTTYNQKFKGRVTMTADTSTSTVYMELSSLRSEDTAVYYCIRYDYDRGMDYWGQGTLVTVSS VL: DIQMTQSPSSLSASVGDRVTITCRASEDIYYRLAWYQQKPGKAPKLLISGATALETGVPSRFSGSGSGKDYTFTISSLQPEDIATYYCQHYWNIPWTFGQGTKVEIK	151000	2.17e-05	79.56	88.62
1CP-121: humanized anti-CDCP1 antibody produced by 8E5; VH SEQ ID NO: 348, VL SEQ ID NO: 359 (antibody, V domains shown, humanized antibody 8E5 heavy chain variable region 01; humanized antibody 8E5 light chain variable region 03) VH: QVQLVQSGSELKKPGASVKVSCKASGYTLTDFSMHWVRQAPGQGLEWMGWINTETGAPTYADDFKGRFVLSLDTSVSTAYLQISSLKAEDTAVYYCSRGRDYDPHFDYWGQGTLVTVSS VL: EIVLTQSPATLSLSPGERATLSCRASQSISDFLHWYQQKSGQSPRLLIKYASQSISGIPARFSGSGSGSDFTLTISSVEPEDFAVYYCQSAHSFPYTFGQGTKLEIK	148000	1e-05	51.49	72.98

The next lines start with results.

ka (HuCDCP1-C) [M⁻¹ s⁻¹]	kd (HuCDCP1-C) [s⁻¹]	Molecule	1 h endocytosis (%) (MDA-MB-231 cells)	2 h endocytosis (%) (MDA-MB-231 cells)
160000	1e-05	1CP-129: humanized anti-CDCP1 antibody produced by 3C11; VH SEQ ID NO: 340, VL SEQ ID NO: 352 (antibody, V domains shown, humanized antibody 3C11 heavy chain variable region 02; humanized antibody 3C11 light chain variable region 02) VH: QVQLVQSGAEVKKPGASVKVSCKASGYNFISYWLHWVRQAPGQGLEWMGGIYPGNTDTTYNQKFKGRVTMTADTSTSTVYMELSSLRSEDTAVYYCIRYDYDRGMDYWGQGTLVTVSS VL: DIQMTQSPSSLSASVGDRVTITCRASEDIYYRLAWYQQKPGKAPKLLISGATALETGVPSRFSGSGSGKDYTLTISSLQPEDIATYYCQHYWNIPWTFGQGTKVEIK	36.18	54.25
139000	1e-05	1CP-128: humanized anti-CDCP1 antibody produced by 3C11; VH SEQ ID NO: 339, VL SEQ ID NO: 352 (antibody, V domains shown, humanized antibody 3C11 heavy chain variable region 01; humanized antibody 3C11 light chain variable region 02) VH: QVQLVQSGAEVKKPGASVKVSCKASGYNFISYWLHWVRQAPGQGLEWMGGIYPGNTDTTYNQKFKGRVTMTRDTSTSTVYMELSSLRSEDTAVYYCIRYDYDRGMDYWGQGTLVTVSS VL: DIQMTQSPSSLSASVGDRVTITCRASEDIYYRLAWYQQKPGKAPKLLISGATALETGVPSRFSGSGSGKDYTLTISSLQPEDIATYYCQHYWNIPWTFGQGTKVEIK	36.87	55.68
114000	0.000465	1CP-152: humanized anti-CDCP1 antibody produced by 8C9; VH SEQ ID NO: 344, VL SEQ ID NO: 354 (antibody, V domains shown, humanized antibody 8C9 heavy chain variable region 02; humanized antibody 8C9 light chain variable region 01) VH: EVQLVESGGGLVQPGRSLRLSCTTSGLTFTHYHMSWVRQAPGKGLEWVAIIRNKAYGYTTDYSASVRGRFTISRDDSKSILYLQMNSLKTEDTAVYYCVREGGYGYDGTFAYWGQGTLVTVSS VL: DIQMTQSPSSLSASVGDRVTITCRASESVDNYGISFMNWFQQKPGQAPKLLIYAASNQGSGVPSRFSGSGSGTDFTLTISSMQPEDFATYYCQQSKEVPRTFGGGTKVEIK	54.39	69.96
122000	0.000385	1CP-157: humanized anti-CDCP1 antibody produced by 8C9; VH SEQ ID NO: 345, VL SEQ ID NO: 355 (antibody, V domains shown, humanized antibody 8C9 heavy chain variable region 03; humanized antibody 8C9 light chain variable region 02) VH: EVQLVESGGGLVQPGRSLRLSCTTSGLTFTHYHMSWVRQAPGKGPEWVAIIRNKAYGYTTDYSASVRGRFTISRDDSKSILYLQMNSLKTEDTAVYYCVREGGYGYDGTFAYWGQGTLVTVSS VL: DIQMTQSPSSLSASVGDRVTITCRASESVDNYGISFMNWFQQKPGQPPKLLIYAASNQGSGVPSRFSGSGSGTDFTLTISSMQPEDFATYYCQQSKEVPRTFGGGTKVEIK	56.06	70.74
